The results in this text go back to US12269880B2, “LAG3 binding peptides” (Leidos, Inc., priority 2019, dated 2025).

Several values for one entry are separate records, joined by “and”; a condition that tells them apart may be missing. Identical values can stand only once.

The target of assay [1] is T1, LAG3/MHC-II interaction (Homo sapiens, UniProt P18627).
T1 construct: purchased Cisbio US Inc
T1 sequence (P18627 23-450 limits assumed): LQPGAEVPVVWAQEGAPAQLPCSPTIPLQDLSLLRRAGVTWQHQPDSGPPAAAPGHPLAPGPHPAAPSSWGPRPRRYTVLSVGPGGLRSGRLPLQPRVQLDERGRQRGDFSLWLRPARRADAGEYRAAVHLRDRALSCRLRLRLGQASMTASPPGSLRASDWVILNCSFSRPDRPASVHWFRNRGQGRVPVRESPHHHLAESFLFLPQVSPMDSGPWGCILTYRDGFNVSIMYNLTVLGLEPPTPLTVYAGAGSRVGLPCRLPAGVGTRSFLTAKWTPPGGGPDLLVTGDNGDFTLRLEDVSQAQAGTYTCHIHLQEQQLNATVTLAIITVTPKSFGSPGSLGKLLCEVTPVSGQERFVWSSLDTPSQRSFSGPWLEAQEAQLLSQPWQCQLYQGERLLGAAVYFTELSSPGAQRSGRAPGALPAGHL
The experiment in a line: HTRF LAG3/MHC-II binding assay (Cisbio). The source says:
FIG. 2 is a graph showing the results of a homogeneous time-resolved fluorescence (HTRF) assay for peptide LAG3-11. Reference Ab-LAG3 is an anti-LAG3 antibody. OVA, the ovalbumin (OVA) peptide (ISQAVHAAHAEINEAGR, SEQ ID NO:8). “HTRF ratio” is the emission at 665 nm (acceptor)/emission at 620 nm (donor) multiplied by a factor or 10^4.
A homogeneous time-resolved fluorescence (HTRF) LAG3/MHC-II binding assay (Cisbio US Inc.) was used to measure the interaction between MHC-II and LAG3 in the presence of peptides. In this assay, the interaction between Tag1-LAG3 and Tag2-MHC-II is detected by using anti-Tag1-Terbium (HTRF donor) and anti-Tag2-XL665 (HTRF acceptor). When the donor and acceptor antibodies are brought into close proximity due to LAG3 and MHC-II binding, excitation of the donor antibody triggers fluorescent resonance energy transfer (FRET) towards the acceptor antibody, which in turn emits specifically at 665 nm. This specific signal is directly proportional to the extent of LAG3/MHC-II interaction. Thus, an agent that blocks the interaction between LAG3 and MHC-II will cause a reduction in HTRF ratio.
An anti-human LAG3 antibody (Novoprotein #GMP-A092, Lot 0331158, 500 nM) was tested in the assay at an eleven-point, serially diluted semi-log dose response curve starting at 100 nM and served as a positive control. The ovalbumin peptide was used as a negative control. Peptides were reconstituted at a concentration of 20 mM in […] and tested at an eleven-point dose response curve starting at 100 µM followed by 4-fold dilutions. […]
On the technique in general: TR-FRET usually uses a lanthanide donor and a delayed reading to cut background.

For assay [2], the target named is T2, human LAG3/FGL1 (Homo sapiens, UniProt P18627).
T2 construct: purchased BPS Bioscience
T2 sequence (P18627 23-450 limits assumed): T1 sequence (P18627 23-450 limits assumed)
The experiment in a line: Human LAG3/FGL1 TR-FRET binding assay (BPS Bioscience). How it is done:
The peptides were tested using a human LAG3/FGL1 TR-FRET binding assay (BPS Bioscience) carried out according to the manufacturer's instructions.
Peptide stocks of LAG3-11, LAG3-42, LAG3-48, LAG3-51, LAG3-54, LAG3-56, LAG3-60 and OVA were prepared at 1 mM followed by a 1:5 dilution in plate reactions. LAG3-11 and OVA were tested at 200, 50, 13, 3, 0.8, 0.2, 0.05, and 0.01 μM. The other peptides were tested at 200, 50, 13, and 3 μM. A neutralizing anti-human LAG3 antibody (BPS Bioscience Cat. #71219) was used as a positive control.
Reaction mixes were incubated 1 hr at RT before development. After development, plate was read in a Tecan M1000 TR-FRET instrument. Percent activity was calculated as follows: % Activity=100×[(sample−minimum)/(maximum−minimum)]

Assay [3] deals with T3, soluble recombinant human LAG3 (Homo sapiens, UniProt P18627).
T3 construct: soluble recombinant human LAG3
T3 sequence (P18627 23-450 limits assumed): T1 sequence (P18627 23-450 limits assumed)
The experiment in a line: Clonal phage ELISA after phage display bio-panning. The class given is binding. From the text:
The TriCo-20™, TriCo-16™, Ph.D.-12™, and Ph.D. C7™ Phage Display Peptide Libraries (Creative Biolabs, 45-1 Ramsey Road, Shirley, NY 11967) were screened by performing several rounds of bio-panning to identify binders of soluble recombinant human LAG3.
For orientation: ELISA stands for enzyme-linked immunosorbent assay.

For assay [4], the system named is human peripheral blood mononuclear cell (PBMC). In words: Human PBMC-based recall assay (EBV and CMV viral-specific peptides). It is filed as cell-based. As to conditions: seven days post-stimulation. Here is the method:
PBMCs were obtained from a human donor who had previously been identified as a positive responder to Epstein-Barr virus (EBV) and Cytomegalovirus (CMV) viral-specific peptides. 5×10^5 PBMCs in 200 μL of media were stimulated with EBV and CMV viral-specific peptides in the presence or absence of LAG3-11. Seven days post-stimulation, the percentage of virus-specific CD8+ T cells were identified via flow cytometry using MHC-I tetramers. Supernatants were also collected and the amount of […] determined via ELISA.

The test system of assay [5] is interaction with LAG3 and its ligand MHC-II. In words: Cell-based NFAT-luc2P luciferase reporter assay, LAG3 Jurkat / MHC-II Raji co-culture. Also on record: species or system human. As to conditions: RLUs at 100 µM compared to RLUs at 0.64 µM. The source says:
A cell-based reporter assay was used to assess whether binding of the seven peptides identified above was sufficient to block the interaction with LAG3 and its ligand MHC-II. The components of the assay include (1) a Jurkat T cell line that stably expresses human LAG3 and a stable NFAT-luc2P luciferase reporter, (2) a Raji cell line that expresses human MHC-II, and (3) a positive control anti-LAG3 antibody that blocks the interaction of LAG3 and MHC-II. In brief, Jurkat cells expressing LAG3 are stimulated with a T cell receptor (TCR) activator molecule, resulting in expression of luciferase. When the Jurkat cells are co-cultured with an a Raji cell line expressing the MHC-II molecule, the interaction of LAG3 on the surface of a Jurkat cell with MHC-II on the surface of a Raji cell inhibits T cell activation, leading to a reduction in luciferase expression. The addition of a neutralizing antibody against LAG3 blocks the inhibition signal and allows luciferase expression to proceed. BIO-GLO™ (Promega) was used to measure luciferase expression. The seven LAG3 peptides were tested at concentrations of 0, 0.64, 1.6, 4, 10, 25, & 100 µM.
Results of the assay testing the seven LAG3 peptides identified above and a negative control peptide ([…]; SEQ ID NO:9) are shown in FIG. 1B.
A general note: In a reporter assay the amount or activity of a reporter protein is the signal.

For the sequence SAPWEPLHWPEDWWQGTGEW (LAG3-11 peptide), the HTRF ratio in assay [1] (LOG [Compound] M tested for peptide −4, single replicates) was 3213 and 3460 and 3458; in assay [1] (LOG [Compound] M tested for peptide −4.60206, single replicates) it was 4749 and 5287 and 5014; in assay [1] (LOG [Compound] M tested for peptide −5.20412, single replicates), 6812 and 6892 and 6696; in assay [1] (LOG [Compound] M tested for peptide −5.80618, single replicates), 7774 and 8164 and 7993; in assay [1] (LOG [Compound] M tested for peptide −6.40824), 8538 and 8718 and 8858; in assay [1] (LOG [Compound] M tested for peptide −7.0103, single replicates) it was 8794 and 8729 and 8889. The HTRF ratio in assay [1] (LOG [Compound] M tested for peptide −7.61236, single replicates) was 9090 and 9036 and 9329; in assay [1] (LOG [Compound] M tested for peptide −8.21442, single replicates) it was 9012 and 9293 and 9067; in assay [1] (LOG [Compound] M tested for peptide −8.81648, single replicates) it was 8877 and 8955 and 8992; in assay [1] (LOG [Compound] M tested for peptide −9.41854, single replicates), 8591 and 6950 and 8287; in assay [1] (LOG [Compound] M tested for peptide −10.0206), 8212 and 8748 and 8700; in assay [1] (LOG [Compound] M tested for peptide −10.6227), 8886 and 8842 and 9097. Also, the “disruption of LAG3 and MHC-II interaction” value in assay [1] (four independent experiments) was “disrupts the interaction of LAG3 and MHC-II”. The “inhibition of the interaction between human LAG3 and FGL1” value in assay [2] is “inhibit the interaction between human LAG3 and FGL1”. The “Clonal Phase ELISA coated signal” value in assay [3] (coated) turned out to be 0.271. Moreover, the “Clonal Phase ELISA uncoated signal” value in assay [3] (uncoated (background)) came to 0.093. Besides, the “increase of IFN-7 secretion by human PBMCs” value in assay [4] (relative to the viral-specific peptides alone, ELISA) is 3 fold. Further, the “increase in percentage of tetramer+ CD8 T cells” value in assay [4] (flow cytometry, MHC-I tetramers) is on record as around 2 fold. In assay [5], the “fold inhibition (fold increase in luciferase activity)” value is on record as “approximately 2.8 fold”.
